Measurements published in the supplement of paper PMC10724198.
± gives the standard deviation of the averaged measurements.

Legend:
[1] = system: Saccharomyces cerevisiae; assay: protein stability index of tFT-peptide fusion (C-terminal peptide) (PSI (0-1 scale)); higher = more stable (slower turnover)
Method: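 MPS profiling in S. cerevisiae of the tFT-X12 degron library: putative degron peptides plus stable controls, 12 aa, fused to the C-terminus of a sfGFP-mCherry timer. Cells are FACS-sorted into 8 mCherry/sfGFP bins and deep-sequenced. PSI runs from 0 (unstable) to 1 (stable). Backgrounds are wild type, das1Δ and doa10Δ at 30 °C, and wild type, das1Δ, cdc34-1 and cdc53-1 at 37 °C; 2-3 technical replicates each.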

[2] = system: Saccharomyces cerevisiae; assay: as above; conditions: genetic background: wild type; temperature: 30 C
[3] = genetic background: cdc34-1, temperature: 37 C
[4] = genetic background: cdc53-1, temperature: 37 C
[5] = genetic background: das1 deletion, temperature: 30 C
[6] = genetic background: das1 deletion, temperature: 37 C
[7] = genetic background: doa10 deletion, temperature: 30 C
[8] = genetic background: wild type, temperature: 30 C
[9] = genetic background: wild type, temperature: 37 C
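Also: PSI is a weighted mean of sequencing reads over stability bins, variants kept only with over 10 reads, mCherry proximal and sfGFP distal, peptide attached via GGGS linker.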

Row | Sequence | protein stability index [1, 3] | protein stability index [1, 4] | protein stability index [1, 5] | protein stability index [1, 6] | protein stability index [1, 7] | protein stability index [1, 8] | protein stability index [1, 9] | protein stability index [2]
1 | VIYNSALLLVRL | 0.273 ± 0.031 | 0.225 ± 0.01 | 0.249 ± 0.031 | 0.407 ± 0.037 | 0.325 ± 0.014 | 0.25 ± 0.023 | 0.386 ± 0.01 | 0.391 ± 0.041
2 | VLAFFPLFFFLS | 0.434 ± 0.035 | 0.5049 ± 0.0042 | 0.439 ± 0.033 | 0.5732 ± 0.0029 | 0.144 ± 0.013 | 0.126 ± 0.015 | 0.245 ± 0.0039 | 0.2054 ± 0.002
3 | VLGARWHWIYIA | 0.281 ± 0.071 | 0.526 ± 0.0082 | 0.501 ± 0.014 | 0.6636 ± 0.0012 | 0.0782 ± 0.011 | 0.078 ± 0.023 | 0.06742 ± 0.00037 | 0.111 ± 0.024
4 | VLGLYSLLLSFF | 0.567 ± 0.068 | 0.6627 ± 0.0015 | 0.524 ± 0.034 | 0.644 ± 0.016 | 0.277 ± 0.013 | 0.305 ± 0.0096 | 0.4532 ± 0.0012 | 0.337 ± 0.007
5 | VLGRCWWIVSDL | 0.736 ± 0.037 | 0.782 ± 0.011 | 0.661 ± 0.016 | 0.763 ± 0.015 | 0.659 ± 0.025 | 0.67 ± 0.024 | 0.755 ± 0.0049 | 0.566 ± 0.19
6 | VLISLVLLFRCW | 0.23 ± 0.015 | 0.244 ± 0.038 | 0.262 ± 0.023 | 0.386 ± 0.016 | 0.307 ± 0.028 | 0.248 ± 0.03 | 0.332 ± 0.017 | 0.408 ± 0.041
7 | VLLMFFFRFSAL | 0.589 ± 0.053 | 0.717 ± 0.014 | 0.545 ± 0.033 | 0.685 ± 0.02 | 0.483 ± 0.011 | 0.491 ± 0.022 | 0.624 ± 0.013 | 0.523 ± 0.049
8 | VLVFYFCFSFCS | 0.144 ± 0.013 | 0.282 ± 0.043 | 0.126 ± 0.025 | 0.297 ± 0.0048 | 0.11 ± 0.015 | 0.129 ± 0.029 | 0.273 ± 0.016 | 0.205 ± 0.049
9 | VLVLSFLYRMVK | 0.353 ± 0.065 | 0.4364 ± 0.0007 | 0.312 ± 0.054 | 0.507 ± 0.013 | 0.271 ± 0.013 | 0.304 ± 0.017 | 0.436 ± 0.032 | 0.376 ± 0.033
10 | VLVSYAIVILYL | 0.128 ± 0.0017 | 0.141 ± 0.03 | 0.136 ± 0.043 | 0.293 ± 0.029 | 0.12 ± 0.008 | 0.149 ± 0.019 | 0.268 ± 0.026 | 0.193 ± 0.002
11 | VLVVLVVCRRAE | 0.247 ± 0.039 | 0.412 ± 0.0043 | 0.226 ± 0.028 | 0.438 ± 0.0089 | 0.18 ± 0.041 | 0.226 ± 0.029 | 0.422 ± 0.0083 | 0.324 ± 0.032
12 | VLYLQCITSAGH | 0.1691 ± 0.00061 | 0.203 ± 0.0061 | 0.273 ± 0.025 | 0.195 ± 0.021 | 0.31 ± 0.044 | 0.29 ± 0.037 | 0.178 ± 0.0088 | 0.246 ± 0.023
13 | VMRMVWVLGVMC | 0.281 ± 0.02 | 0.325 ± 0.047 | 0.251 ± 0.037 | 0.405 ± 0.0087 | 0.178 ± 0.0075 | 0.203 ± 0.028 | 0.35 ± 0.0091 | 0.299 ± 0.011
14 | VPSMSIVWCRVL | 0.383 ± 0.036 | 0.446 ± 0.0055 | 0.417 ± 0.02 | 0.511 ± 0.01 | 0.168 ± 0.01 | 0.123 ± 0.018 | 0.12 ± 0.005 | 0.213 ± 0.048
15 | VPSPWVFSLFLH | 0.594 ± 0.059 | 0.689 ± 0.0095 | 0.604 ± 0.025 | 0.73 ± 0.012 | 0.14 ± 0.0025 | 0.139 ± 0.0022 | 0.283 ± 0.016 | 0.242 ± 0.033
16 | VQFISLVCLFRF | 0.339 ± 0.048 | 0.361 ± 0.0089 | 0.341 ± 0.045 | 0.475 ± 0.036 | 0.346 ± 0.033 | 0.303 ± 0.018 | 0.448 ± 0.039 | 0.414 ± 0.013
17 | VQWPLLVVGCMG | 0.271 ± 0.016 | 0.312 ± 0.04 | 0.263 ± 0.029 | 0.401 ± 0.0053 | 0.211 ± 0.015 | 0.251 ± 0.036 | 0.361 ± 0.011 | 0.399 ± 0.028
18 | VSFRISAIFVCV | 0.232 ± 0.034 | 0.293 ± 0.02 | 0.216 ± 0.033 | 0.367 ± 0.0039 | 0.183 ± 0.011 | 0.202 ± 0.028 | 0.322 ± 0.045 | 0.343 ± 0.044
19 | VSPATFLFYFFF | 0.62 ± 0.022 | 0.688 ± 0.011 | 0.544 ± 0.02 | 0.655 ± 0.0092 | 0.37374 ± 0.00014 | 0.396 ± 0.013 | 0.5607 ± 0.00097 | 0.497 ± 0.017
